Source: patent publication US20260125472A1 (HEFEI TG IMMUNOPHARMA, published 2026)

Columns and labels:
Trop2 protein = target: T1, Trop2 protein (UniProt P09758 27-274); test: ELISA, coated Trop2 protein, OD450
T1 construct: Bought recombinant protein; also called Trop2-Biotin protein (biotin-labelled, bridging ELISA)
T1 sequence (looked up): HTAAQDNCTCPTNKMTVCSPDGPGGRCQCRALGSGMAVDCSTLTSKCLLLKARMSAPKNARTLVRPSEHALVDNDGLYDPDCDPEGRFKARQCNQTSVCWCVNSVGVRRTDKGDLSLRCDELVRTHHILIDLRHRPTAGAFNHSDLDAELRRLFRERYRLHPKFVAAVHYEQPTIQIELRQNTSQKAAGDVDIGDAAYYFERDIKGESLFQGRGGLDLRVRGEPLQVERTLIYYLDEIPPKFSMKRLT
Source text: In this example, the binding properties of the CD3×Trop2 and CD3×PDL1 bispecific antibody (the production method and the amino acid sequences of the heavy and light chains were shown in Example 1) were detected by using ELISA. The CD3E&D, Trop2, or PDL1 protein was coated onto 96-well plates by inventors, and the strength of the signal after the addition of the antibody was used to determine the binding properties of the antibody and the corresponding protein.
(2) Trop2 protein (purchased from Acro) was diluted to 2 μg/ml with PBS buffer, added to a 96-well plate at a volume of 100 μL/well, and placed at 4° C. overnight. The PBS buffer in the 96-well plate was aspirated, and the plate was washed 6 times with PBST (pH 7.2 PBS containing 0.1% Tween 20) buffer. Then, 200 μL/well PBS/10% BSA was added and incubated at 37° C. for 2 h for blocking. The blocking solution was removed, and the plate was washed six times with PBST. Then, the to-be-tested bispecific antibodies, Cross3×Trop2, Cross303×Trop2, Cross307×Trop2, Cross308×Trop2, Cross309×Trop2, Cross310×Trop2, Cross311×Trop2, Cross312×Trop2, Cross313×Trop2, Cross314×Trop2, Cross316×Trop2, Cross317×Trop2, Cross318×Trop2, Cross323×Trop2, Cross325×Trop2, Cross326×Trop2, and control IgG1LALA (purchased from Bio-Tech), serially diluted with PBST/0.05% BSA, were added at 100 μL/well and incubated at 37° C. for 1 h. The reaction system was removed, and the plate was washed 6 times with PBST. Then, HRP (horseradish peroxidase)-labeled anti-human secondary antibody (Fab specific) (purchased from Sigma) diluted with PBST/0.05% BSA at 100 μL/well. After the plate was washed six times with PBST, TMB (tetramethylbenzidine) was added at 80 μL/well, and incubated at room temperature for 3 min. 4 M sulfuric acid was added at 80 μL/well to terminate the reaction. The absorbance was read at 450 nm using a microplate reader.

[1] = target: T2, Trop2 on A-375-Trop2 melanoma cells (UniProt P09758 27-323, limits assumed); test: flow cytometry, A-375-Trop2 cells, MFI [panel B]
T2 construct: whole, on cells
T2 sequence (looked up): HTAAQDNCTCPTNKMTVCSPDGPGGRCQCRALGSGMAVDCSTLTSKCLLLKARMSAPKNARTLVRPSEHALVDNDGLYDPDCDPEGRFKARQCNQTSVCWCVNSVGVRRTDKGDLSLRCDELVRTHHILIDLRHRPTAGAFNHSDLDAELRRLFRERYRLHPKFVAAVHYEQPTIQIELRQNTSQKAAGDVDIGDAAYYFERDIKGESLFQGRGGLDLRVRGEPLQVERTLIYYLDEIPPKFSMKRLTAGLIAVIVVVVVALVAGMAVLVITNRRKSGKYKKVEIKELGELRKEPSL
Protocol: (§1) (2) The tumor cells were diluted to 2×10⁶/ml with PBS and added to a 1.5 ml EP tube at a volume of 100 μl/tube, and goat serum was added thereto at 10 μl/tube. The cells were blocked at 4° C. for 30 min. The serially diluted bispecific antibodies, Cross3×Trop2, Cross303×Trop2, Cross307×Trop2, Cross308×Trop2, Cross309×Trop2, Cross310×Trop2, Cross311×Trop2, Cross312×Trop2, Cross313×Trop2, Cross314×Trop2, Cross316×Trop2, Cross317×Trop2, Cross318×Trop2, Cross323×Trop2, Cross325×Trop2, Cross326×Trop2, and Cross3×PDL1, Cross303×PDL1, Cross307×PDL1, Cross308×PDL1, Cross309×PDL1, Cross310×PDL1, Cross311×PDL1, Cross312×PDL1, Cross313×PDL1, Cross314×PDL1, Cross316×PDL1, Cross317×PDL1, Cross318×PDL1, Cross323×PDL1, Cross325×PDL1, Cross326×PDL1, and control hIgG1LALA (purchased from Bio-Tech) were added and incubated at 4° C. for 30 min. 1 ml of PBS was added to the EP tube, followed by centrifugation at 3500 rpm for 5 min at 4° C. The supernatant was discarded, and the cells were washed again with PBS. After centrifugation, the supernatant was completely discarded, and the cells were resuspended with PBS at 100 μl/tube. Alexa-647-labeled goat anti-human IgG secondary antibody (purchased from Jackson lab) was added at 1 μl/tube and incubated at 4° C. in the dark for 30 min. The cells were washed twice with PBS, and the supernatant was completely discarded after centrifugation. The cells were resuspended with PBS at 200 μl/tube and assay was performed using the flow cytometry.

[2] = target: T3, PDL1 on A-375 melanoma cells, HCT-15 colorectal cancer cells and A549 lung cancer cells (UniProt Q9NZQ7 19-290, limits assumed); test: flow cytometry, A549 cells, MFI [panel B]
T3 construct: whole, on cells
Protocol: as §1

PDL1 protein = target: T4, PDL1 protein (UniProt Q9NZQ7 19-238); test: ELISA, coated PDL1 protein, OD450 [panel A]
T4 construct: Bought recombinant protein
Protocol: (3) PDL1 protein (purchased from Acro) was diluted to 2 μg/ml with PBS buffer, added to a 96-well plate at a volume of 100 μL/well, and placed at 4° C. overnight. The PBS buffer in the 96-well plate was aspirated, and the plate was washed 6 times with PBST (pH 7.2 PBS containing 0.10% Tween 20) buffer. Then, PBS/10% BSA was added at 200 μL/well and incubated at 37° C. for 2 h for blocking. The blocking solution was removed, and the plate was washed six times with PBST. Then, the to-be-tested bispecific antibodies serially diluted with PBST/0.05% BSA, Cross3×PDL1, Cross303×PDL1, Cross307×PDL1, Cross308×PDL1, Cross309×PDL1, Cross310×PDL1, Cross311×PDL1, Cross312×PDL1, Cross313×PDL1, Cross314×PDL1, Cross316×PDL1, Cross317×PDL1, Cross318×PDL1, Cross323×PDL1, Cross325×PDL1, Cross326×PDL1, and control IgG1LALA (purchased from Bio-Tech) were added at 100 μL/well, and incubated at 37° C. for 1 h. The reaction system was removed, and the plate was washed 6 times with PBST. Then, the cells were incubated at 37° C. for 1 h with HRP (horseradish peroxidase)-labeled anti-human secondary antibody (Fab specific) (purchased from Sigma) serially diluted with PBST/0.05% BSA at 100 μL/well. After the plate was washed six times with PBST, TMB (tetramethylbenzidine) was added at 80 μL/well and incubated at room temperature for 3 min. 4 M sulfuric acid was added at 80 μL/well to terminate the reaction. The absorbance was read at 450 nm using a microplate reader.

T4 sequence (Q9NZQ7 19-238 limits assumed): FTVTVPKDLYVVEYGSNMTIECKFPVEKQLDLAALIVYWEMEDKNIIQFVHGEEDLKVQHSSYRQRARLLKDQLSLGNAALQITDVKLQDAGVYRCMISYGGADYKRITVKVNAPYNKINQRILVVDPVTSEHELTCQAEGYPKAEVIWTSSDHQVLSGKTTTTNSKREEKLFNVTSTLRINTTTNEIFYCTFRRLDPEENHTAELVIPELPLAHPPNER
T3 sequence (Q9NZQ7 19-290 limits assumed): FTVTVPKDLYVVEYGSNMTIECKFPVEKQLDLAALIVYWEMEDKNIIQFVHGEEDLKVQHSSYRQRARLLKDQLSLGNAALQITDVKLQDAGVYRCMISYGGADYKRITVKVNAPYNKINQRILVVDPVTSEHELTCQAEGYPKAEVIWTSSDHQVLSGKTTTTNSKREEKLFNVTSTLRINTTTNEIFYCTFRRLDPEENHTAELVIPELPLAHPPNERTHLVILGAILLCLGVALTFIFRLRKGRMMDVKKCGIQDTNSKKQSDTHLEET

B1: Cross308×Trop2 (bispecific antibody)
scFv: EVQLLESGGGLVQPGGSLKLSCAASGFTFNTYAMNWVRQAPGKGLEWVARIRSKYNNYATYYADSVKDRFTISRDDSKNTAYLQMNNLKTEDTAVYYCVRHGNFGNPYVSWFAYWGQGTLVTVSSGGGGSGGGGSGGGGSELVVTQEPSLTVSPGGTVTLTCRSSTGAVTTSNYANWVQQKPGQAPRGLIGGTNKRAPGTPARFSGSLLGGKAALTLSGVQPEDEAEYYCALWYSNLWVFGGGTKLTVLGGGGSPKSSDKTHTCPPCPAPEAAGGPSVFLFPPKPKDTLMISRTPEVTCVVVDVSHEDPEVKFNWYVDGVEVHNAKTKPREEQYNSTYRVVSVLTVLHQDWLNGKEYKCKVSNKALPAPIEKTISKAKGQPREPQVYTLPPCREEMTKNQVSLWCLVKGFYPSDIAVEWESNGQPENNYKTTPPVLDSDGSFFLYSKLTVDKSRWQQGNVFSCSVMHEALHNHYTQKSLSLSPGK
heavy: QVQLQQSGSELKKPGASVKVSCKASGYTFTNYGMNWVKQAPGQGLKWMGWINTYTGEPTYTDDFKGRFAFSLDTSVSTAYLQISSLKADDTAVYFCARGGFGSSYWYFDVWGQGSLVTVSSASTKGPSVFPLAPSSKSTSGGTAALGCLVKDYFPEPVTVSWNSGALTSGVHTFPAVLQSSGLYSLSSVVTVPSSSLGTQTYICNVNHKPSNTKVDKKVEPKSSDKTHTCPPCPAPEAAGGPSVFLFPPKPKDTLMISRTPEVTCVVVDVSHEDPEVKFNWYVDGVEVHNAKTKPREEQYNSTYRVVSVLTVLHQDWLNGKEYKCKVSNKALPAPIEKTISKAKGQPREPQVCTLPPSREEMTKNQVSLSCAVKGFYPSDIAVEWESNGQPENNYKTTPPVLDSDGSFFLVSKLTVDKSRWQQGNVFSCSVMHEALHNHYTQKSLSLSPGK
light: DIQLTQSPSSLSASVGDRVSITCKASQDVSIAVAWYQQKPGKAPKLLIYSASYRYTGVPDRFSGSGSGTDFTLTISSLQPEDFAVYYCQQHYITPLTFGAGTKVEIKRTVAAPSVFIFPPSDEQLKSGTASVVCLLNNFYPREAKVQWKVDNALQSGNSQESVTEQDSKDSTYSLSSTLTLSKADYEKHKVYACEVTHQGLSSPVTKSFNRGEC
In the case of B1, the “EC50 (read off the curve)” value (Trop2 protein) is reported as roughly 0.008 mg/L and the “EC50 (read off the curve)” value [1] is reported as roughly 1 mg/L.

B2: Cross318×Trop2 (bispecific antibody)
scFv: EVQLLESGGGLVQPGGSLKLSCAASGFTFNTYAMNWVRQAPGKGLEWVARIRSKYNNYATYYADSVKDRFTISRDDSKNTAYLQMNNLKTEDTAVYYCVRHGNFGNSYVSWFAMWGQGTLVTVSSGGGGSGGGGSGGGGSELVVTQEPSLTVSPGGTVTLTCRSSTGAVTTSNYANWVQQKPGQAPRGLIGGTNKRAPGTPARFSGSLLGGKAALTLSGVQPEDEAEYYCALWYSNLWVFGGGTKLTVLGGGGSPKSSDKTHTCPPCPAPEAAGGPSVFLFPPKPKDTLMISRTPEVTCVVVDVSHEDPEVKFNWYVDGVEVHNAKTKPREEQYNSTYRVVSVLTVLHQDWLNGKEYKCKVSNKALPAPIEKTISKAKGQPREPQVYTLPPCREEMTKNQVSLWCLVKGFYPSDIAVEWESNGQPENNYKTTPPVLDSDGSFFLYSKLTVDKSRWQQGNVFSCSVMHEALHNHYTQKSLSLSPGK
heavy: B1 heavy
light: B1 light
With B2 the “EC50 (read off the curve)” value (Trop2 protein) was roughly 0.02 mg/L and the “EC50 (read off the curve)” value [1] was roughly 1 mg/L.

B3: Cross316×Trop2 (bispecific antibody)
scFv: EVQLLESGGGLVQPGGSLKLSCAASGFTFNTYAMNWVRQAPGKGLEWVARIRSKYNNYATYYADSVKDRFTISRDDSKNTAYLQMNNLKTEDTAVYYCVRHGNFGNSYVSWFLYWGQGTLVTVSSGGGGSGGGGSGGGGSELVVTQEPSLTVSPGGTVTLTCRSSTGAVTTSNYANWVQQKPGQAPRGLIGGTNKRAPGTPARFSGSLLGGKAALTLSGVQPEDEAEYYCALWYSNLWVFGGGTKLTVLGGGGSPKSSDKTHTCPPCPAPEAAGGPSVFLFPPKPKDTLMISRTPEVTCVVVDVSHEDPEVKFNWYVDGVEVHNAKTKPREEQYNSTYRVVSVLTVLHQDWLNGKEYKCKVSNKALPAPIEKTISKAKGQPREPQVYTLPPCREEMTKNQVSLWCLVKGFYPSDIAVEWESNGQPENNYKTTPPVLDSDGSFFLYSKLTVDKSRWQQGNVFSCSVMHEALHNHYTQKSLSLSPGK
heavy: B1 heavy
light: B1 light
B3 was tested, and the “EC50 (read off the curve)” value (Trop2 protein) was roughly 0.008 mg/L and the “EC50 (read off the curve)” value [1] was roughly 1 mg/L.

B4: Cross313×Trop2 (bispecific antibody)
scFv: not shown
heavy: B1 heavy
light: B1 light
In the case of B4, the “EC50 (read off the curve)” value (Trop2 protein) is reported as roughly 0.008 mg/L and the “EC50 (read off the curve)” value [1] is reported as roughly 1 mg/L.

B5: Cross323×Trop2 (bispecific antibody)
scFv: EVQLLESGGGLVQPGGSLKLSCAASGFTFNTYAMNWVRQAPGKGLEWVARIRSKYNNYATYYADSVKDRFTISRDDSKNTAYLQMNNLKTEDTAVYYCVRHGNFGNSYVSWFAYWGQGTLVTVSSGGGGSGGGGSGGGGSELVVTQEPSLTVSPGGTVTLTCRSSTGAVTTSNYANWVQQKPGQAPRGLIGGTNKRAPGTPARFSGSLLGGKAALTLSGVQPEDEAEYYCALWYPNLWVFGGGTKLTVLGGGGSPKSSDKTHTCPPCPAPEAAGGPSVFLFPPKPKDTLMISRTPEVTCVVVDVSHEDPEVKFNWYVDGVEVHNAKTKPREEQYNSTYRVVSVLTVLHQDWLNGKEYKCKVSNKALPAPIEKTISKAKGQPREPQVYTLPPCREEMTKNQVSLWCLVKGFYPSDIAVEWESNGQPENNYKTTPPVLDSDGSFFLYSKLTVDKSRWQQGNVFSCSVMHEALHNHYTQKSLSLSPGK
heavy: B1 heavy
light: B1 light
B5 was tested, and the “EC50 (read off the curve)” value (Trop2 protein) was roughly 0.008 mg/L and the “EC50 (read off the curve)” value [1] was roughly 1 mg/L.

B6: Cross312×Trop2 (bispecific antibody)
scFv: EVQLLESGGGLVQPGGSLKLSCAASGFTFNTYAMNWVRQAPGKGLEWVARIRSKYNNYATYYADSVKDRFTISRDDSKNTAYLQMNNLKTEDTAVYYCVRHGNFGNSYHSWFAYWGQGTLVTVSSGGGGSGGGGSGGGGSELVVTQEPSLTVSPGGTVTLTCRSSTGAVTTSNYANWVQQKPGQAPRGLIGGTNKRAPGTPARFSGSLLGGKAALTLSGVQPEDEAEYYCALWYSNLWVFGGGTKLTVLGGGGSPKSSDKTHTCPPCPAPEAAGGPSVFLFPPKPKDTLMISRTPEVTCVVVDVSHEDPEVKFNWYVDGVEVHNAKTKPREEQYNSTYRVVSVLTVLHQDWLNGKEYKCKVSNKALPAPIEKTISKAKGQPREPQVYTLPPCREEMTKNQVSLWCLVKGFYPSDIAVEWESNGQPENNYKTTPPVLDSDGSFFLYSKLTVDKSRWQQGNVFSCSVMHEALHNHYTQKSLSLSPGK
heavy: B1 heavy
light: B1 light
With B6 the “EC50 (read off the curve)” value (Trop2 protein) was roughly 0.008 mg/L and the “EC50 (read off the curve)” value [1] was roughly 1 mg/L.

B7: Cross310×Trop2 (bispecific antibody)
scFv: not shown
heavy: B1 heavy
light: B1 light
With B7 the “EC50 (read off the curve)” value (Trop2 protein) was roughly 0.008 mg/L and the “EC50 (read off the curve)” value [1] was roughly 1 mg/L.

B8: Cross309×Trop2 (bispecific antibody)
scFv: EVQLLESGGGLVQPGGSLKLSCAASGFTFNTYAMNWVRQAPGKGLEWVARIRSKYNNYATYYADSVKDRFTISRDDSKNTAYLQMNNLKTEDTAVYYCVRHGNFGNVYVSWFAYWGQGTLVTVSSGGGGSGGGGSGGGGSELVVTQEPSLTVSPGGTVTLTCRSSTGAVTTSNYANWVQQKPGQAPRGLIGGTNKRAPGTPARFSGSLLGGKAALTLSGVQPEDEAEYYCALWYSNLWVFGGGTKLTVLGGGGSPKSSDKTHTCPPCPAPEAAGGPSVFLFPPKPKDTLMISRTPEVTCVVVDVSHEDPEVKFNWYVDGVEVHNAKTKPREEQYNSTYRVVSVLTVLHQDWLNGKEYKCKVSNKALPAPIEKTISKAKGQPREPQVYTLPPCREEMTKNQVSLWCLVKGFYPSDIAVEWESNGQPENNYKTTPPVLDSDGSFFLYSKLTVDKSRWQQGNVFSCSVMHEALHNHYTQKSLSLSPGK
heavy: B1 heavy
light: B1 light
In the case of B8, the “EC50 (read off the curve)” value (Trop2 protein) is reported as roughly 0.008 mg/L and the “EC50 (read off the curve)” value [1] is reported as roughly 1 mg/L.

B9: Cross325×Trop2 (bispecific antibody)
scFv: not shown
heavy: B1 heavy
light: B1 light
For B9, the “EC50 (read off the curve)” value (Trop2 protein) was roughly 0.008 mg/L and the “EC50 (read off the curve)” value [1] was roughly 1 mg/L.

B10: Cross326×Trop2 (bispecific antibody)
scFv: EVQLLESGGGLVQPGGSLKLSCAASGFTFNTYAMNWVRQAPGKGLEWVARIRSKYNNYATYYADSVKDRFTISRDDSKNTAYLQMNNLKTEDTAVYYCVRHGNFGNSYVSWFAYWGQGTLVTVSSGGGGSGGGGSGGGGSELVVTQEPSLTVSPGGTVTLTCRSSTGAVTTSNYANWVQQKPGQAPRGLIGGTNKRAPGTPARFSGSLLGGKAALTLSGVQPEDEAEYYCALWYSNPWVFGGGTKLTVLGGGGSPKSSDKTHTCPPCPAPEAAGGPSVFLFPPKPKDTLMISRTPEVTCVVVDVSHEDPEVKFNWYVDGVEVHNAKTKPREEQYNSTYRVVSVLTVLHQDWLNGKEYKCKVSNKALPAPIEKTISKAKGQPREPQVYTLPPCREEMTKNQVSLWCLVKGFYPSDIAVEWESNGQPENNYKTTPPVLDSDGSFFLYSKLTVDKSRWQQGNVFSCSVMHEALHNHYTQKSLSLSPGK
heavy: B1 heavy
light: B1 light
With B10 the “EC50 (read off the curve)” value (Trop2 protein) was roughly 0.008 mg/L and the “EC50 (read off the curve)” value [1] was roughly 1 mg/L.

B11: Cross314×Trop2 (bispecific antibody)
scFv: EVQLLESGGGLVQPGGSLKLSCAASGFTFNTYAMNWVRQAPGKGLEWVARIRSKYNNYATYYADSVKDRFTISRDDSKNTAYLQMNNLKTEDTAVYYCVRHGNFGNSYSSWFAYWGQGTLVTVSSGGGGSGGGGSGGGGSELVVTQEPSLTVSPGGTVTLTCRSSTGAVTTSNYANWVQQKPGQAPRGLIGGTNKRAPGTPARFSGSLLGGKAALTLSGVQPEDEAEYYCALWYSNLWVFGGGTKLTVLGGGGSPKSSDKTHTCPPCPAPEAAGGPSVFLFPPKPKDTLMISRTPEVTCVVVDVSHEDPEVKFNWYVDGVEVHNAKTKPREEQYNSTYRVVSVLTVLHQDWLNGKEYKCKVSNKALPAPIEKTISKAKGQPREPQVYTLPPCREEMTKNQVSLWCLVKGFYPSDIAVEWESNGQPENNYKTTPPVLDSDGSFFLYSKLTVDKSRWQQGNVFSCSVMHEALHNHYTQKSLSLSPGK
heavy: B1 heavy
light: B1 light
With B11 the “EC50 (read off the curve)” value (Trop2 protein) was roughly 0.008 mg/L and the “EC50 (read off the curve)” value [1] was roughly 1 mg/L.

B12: Cross303×PDL1 (bispecific antibody, human IgG1, kappa, L234A L235A)
scFv: not shown
heavy: QVQLVQSGAEVKKPGASVKVSCKASGYSFTGYYMHWVRQAPGQGLEWIGRINPYNGATTYSQNFKDRATMTVDTSISTAYMELSRLRSDDTAVYYCVPTGMGYFLMDYWGQGTLVTVSSASTKGPSVFPLAPSSKSTSGGTAALGCLVKDYFPEPVTVSWNSGALTSGVHTFPAVLQSSGLYSLSSVVTVPSSSLGTQTYICNVNHKPSNTKVDKKVEPKSCDKTHTCPPCPAPEAAGGPSVFLFPPKPKDTLMISRTPEVTCVVVDVSHEDPEVKFNWYVDGVEVHNAKTKPREEQYNSTYRVVSVLTVLHQDWLNGKEYKCKVSNKALPAPIEKTISKAKGQPREPQVCTLPPSREEMTKNQVSLSCAVKGFYPSDIAVEWESNGQPENNYKTTPPVLDSDGSFFLVSKLTVDKSRWQQGNVFSCSVMHEALHNHYTQKSLSLSPGK
light: DIQLTQSPSFLSASVGDRVTITCKASQDVGSAVVWYQQKPGKAPKLLIYWASTRHTGVPSRFSGSGSGTEFTLTISSLQPEDFATYFCQQFTSYPTFGQGTKLEIKRTVAAPSVFIFPPSDEQLKSGTASVVCLLNNFYPREAKVQWKVDNALQSGNSQESVTEQDSKDSTYSLSSTLTLSKADYEKHKVYACEVTHQGLSSPVTKSFNRGEC
For B12, the “EC50 (read off the curve)” value [2] was roughly 1 mg/L and the “EC50 (read off the curve)” value (PDL1 protein) was roughly 0.2 mg/L.

B13: Cross307×PDL1 (bispecific antibody, human IgG1, kappa, L234A L235A)
scFv: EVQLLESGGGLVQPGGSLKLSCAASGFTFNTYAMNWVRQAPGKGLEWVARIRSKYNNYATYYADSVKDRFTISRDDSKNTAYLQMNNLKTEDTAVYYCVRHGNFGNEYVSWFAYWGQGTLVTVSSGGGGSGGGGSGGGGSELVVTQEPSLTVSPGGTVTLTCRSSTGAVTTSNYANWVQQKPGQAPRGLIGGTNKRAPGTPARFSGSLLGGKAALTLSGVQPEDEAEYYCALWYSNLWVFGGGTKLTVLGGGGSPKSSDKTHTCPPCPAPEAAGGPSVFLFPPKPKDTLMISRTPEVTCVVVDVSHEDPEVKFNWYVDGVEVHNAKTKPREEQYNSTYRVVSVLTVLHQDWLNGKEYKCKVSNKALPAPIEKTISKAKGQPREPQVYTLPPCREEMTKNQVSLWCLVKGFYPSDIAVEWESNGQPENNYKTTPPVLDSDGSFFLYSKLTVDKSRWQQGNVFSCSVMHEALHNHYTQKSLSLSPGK
heavy: B12 heavy
light: B12 light
With B13 the “EC50 (read off the curve)” value [2] was roughly 1 mg/L and the “EC50 (read off the curve)” value (PDL1 protein) was roughly 0.2 mg/L.
